Reference: PMC6773438

Target: mononucleosomes reconstituted by salt dialysis with purified recombinant Drosophila core histones (Drosophila), P84051
Experiment: native gel or EMSA; gel mobility shift; 147 bp X. borealis 5S rDNA mononucleosomes (60 nM) with indicated amounts of Dsup; HEG buffer (25 mM Hepes K+, pH 7.6, 0.1 mM EDTA, 10% glycerol), 100 mM KCl, BSA; 30°C 30 min; nondenaturing 4.5% polyacrylamide gel at 4°C, ethidium bromide
Conditions: remark: other sources report otherwise

- stoichiometry N (molecules of Rv Dsup per nucleosome): 2
B1: Ramazzottius varieornatus damage suppressor protein (Rv Dsup), P0DOW4 1-445 (natural protein)
chain: MASTHQSSTEPSSTGKSEETKKDASQGSGQDSKNVTVTKGTGSSATSAAIVKTGGSQGKDSSTTAGSSSTQGQKFSTTPTDPKTFSSDQKEKSKSPAKEVPSGGDSKSQGDTKSQSDAKSSGQSQGQSKDSGKSSSDSSKSHSVIGAVKDVVAGAKDVAGKAVEDAPSIMHTAVDAVKNAATTVKDVASSAASTVAEKVVDAYHSVVGDKTDDKKEGEHSGDKKDDSKAGSGSGQGGDNKKSEGETSGQAESSSGNEGAAPAKGRGRGRPPAAAKGVAKGAAKGAAASKGAKSGAESSKGGEQSSGDIEMADASSKGGSDQRDSAATVGEGGASGSEGGAKKGRGRGAGKKADAGDTSAEPPRRSSRLTSSGTGAGSAPAAAKGGAKRAASSSSTPSNAKKQATGGAGKAAATKATAAKSAASKAPQNGAGAKKKGGKAGGRKRK
